The supplement of paper PMC10065799, “High-throughput profiling of sequence recognition by tyrosine kinases and SH2 domains using bacterial peptide display” (eLife, 2023)

target: Hck (UniProt P08631); test: phosphorylation enrichment, bacterial display (enrichment ratio); higher = better substrate or ligand; peptides without Tyr show the background
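Note: 11-residue human phosphosite peptides and single-mutation variants displayed on the E. coli surface, counted by deep sequencing, each peptide's frequency after selection divided by its frequency in the unselected input library; frequency after pTyr selection over input frequency; kinase dosed for 20-30% of maximal phosphorylation in three min.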

Hck, sequence (P08631 whole entry, looked up): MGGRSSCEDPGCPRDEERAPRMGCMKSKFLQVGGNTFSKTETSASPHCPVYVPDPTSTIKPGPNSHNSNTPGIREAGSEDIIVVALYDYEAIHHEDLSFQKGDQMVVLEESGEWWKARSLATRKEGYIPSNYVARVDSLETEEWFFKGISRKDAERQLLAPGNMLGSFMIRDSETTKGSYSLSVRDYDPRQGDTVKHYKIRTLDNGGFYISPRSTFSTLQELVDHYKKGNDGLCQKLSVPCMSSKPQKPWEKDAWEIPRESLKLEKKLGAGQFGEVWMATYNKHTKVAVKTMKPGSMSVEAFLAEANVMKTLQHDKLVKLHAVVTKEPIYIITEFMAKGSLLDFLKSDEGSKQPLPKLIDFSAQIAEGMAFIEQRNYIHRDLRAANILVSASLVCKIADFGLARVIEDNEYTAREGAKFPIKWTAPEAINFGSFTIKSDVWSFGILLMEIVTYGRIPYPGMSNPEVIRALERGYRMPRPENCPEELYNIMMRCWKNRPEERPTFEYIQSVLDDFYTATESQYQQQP

Row | Sequence | phosphorylation enrichment
1 | EKKKYYDTKIE [CASP5_Y104] | 0.511
2 | FADIAYNYRQG [PAH_Y166_H170Q] | 0.507
3 | PQDVTYARLHS [LILRB4_Y412_Q414R] | 4.33
4 | AIGCEYSEINI [SIGLEC12_Y588_Y586C] | 2.42
5 | HFIKLYEEKTG [PARP1_Y618_M615I] | 0.828
6 | TENAGYFFRIS | 0.548
7 | KKYFSYAWPFY [BRDT_Y291_H288Y] | 0.415
8 | SSTASYFKAPG [RFX2_Y108_E110K] | 0.431
9 | LSNFNYEQRGA [API5_Y497_G493S] | 0.509
10 | DAMQTYNGNDE [TSPAN7_Y131] | 0.494
11 | LPSKDYAEVRR [HP_Y272_G276R] | 0.7
12 | NTGVFYDLFGG [PTPN11_Y63_D61V_YF] | 2.84
13 | NFDRVYIYHLR [MYOF_Y1137] | 0.782
14 | GIVEDYRPPFC [ACVRL1_Y421_Y426C] | 0.406
15 | ISIFHCAKGQP [MPZ_Y82_Y82C] | 0.608
16 | NFGTNYRVGSS [CPO_Y278_K273N_YF] | 0.482
17 | GACGGYCSVLG [RAB18_Y202] | 0.392
18 | PLFKIYVAELI [MRPL28_Y230] | 0.738
19 | DKATEYIQYVR [MAX_Y70_M74V] | 0.552
20 | DPHKIFEFVNS [IRF3_Y107_Y107F] | 0.607
21 | LERYIYNPEEF [HLA-DPB1_Y59_R61P] | 1.56
22 | RVLKLYGCSPS [ASTL_Y279] | 0.564

target: Jak2 (UniProt O60674); test: as above
Sequence (O60674 whole entry, looked up): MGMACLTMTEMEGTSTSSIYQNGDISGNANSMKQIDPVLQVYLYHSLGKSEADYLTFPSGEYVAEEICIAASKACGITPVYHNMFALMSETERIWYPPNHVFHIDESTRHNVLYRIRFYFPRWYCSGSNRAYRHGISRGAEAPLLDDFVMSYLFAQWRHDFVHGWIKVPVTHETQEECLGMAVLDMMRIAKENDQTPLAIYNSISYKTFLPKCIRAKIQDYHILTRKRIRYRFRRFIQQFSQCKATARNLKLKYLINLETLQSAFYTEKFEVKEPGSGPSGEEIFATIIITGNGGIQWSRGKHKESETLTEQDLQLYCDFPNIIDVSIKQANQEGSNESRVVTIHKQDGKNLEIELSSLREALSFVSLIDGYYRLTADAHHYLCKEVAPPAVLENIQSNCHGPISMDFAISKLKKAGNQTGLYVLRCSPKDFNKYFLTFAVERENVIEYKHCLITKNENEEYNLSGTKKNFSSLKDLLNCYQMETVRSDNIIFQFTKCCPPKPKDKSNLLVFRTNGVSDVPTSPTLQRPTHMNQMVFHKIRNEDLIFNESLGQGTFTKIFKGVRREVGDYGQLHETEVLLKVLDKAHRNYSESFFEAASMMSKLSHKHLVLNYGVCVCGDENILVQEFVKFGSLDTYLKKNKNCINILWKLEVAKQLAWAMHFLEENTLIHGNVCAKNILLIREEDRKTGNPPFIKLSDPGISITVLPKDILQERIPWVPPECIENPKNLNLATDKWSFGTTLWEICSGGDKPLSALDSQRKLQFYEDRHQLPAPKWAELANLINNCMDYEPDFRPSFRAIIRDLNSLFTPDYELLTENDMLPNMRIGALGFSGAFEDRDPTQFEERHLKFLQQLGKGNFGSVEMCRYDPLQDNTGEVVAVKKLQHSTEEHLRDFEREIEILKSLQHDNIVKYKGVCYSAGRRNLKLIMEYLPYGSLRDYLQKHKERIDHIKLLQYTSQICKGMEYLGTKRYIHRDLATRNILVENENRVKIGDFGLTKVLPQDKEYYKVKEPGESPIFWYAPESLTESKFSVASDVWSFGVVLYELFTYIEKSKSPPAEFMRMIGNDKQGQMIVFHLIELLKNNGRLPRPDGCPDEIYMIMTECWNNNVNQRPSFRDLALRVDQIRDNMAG

Row | Sequence | phosphorylation enrichment
23 | EKKKYYDTKIE [CASP5_Y104] | 0.779
24 | FADIAYNYRQG [PAH_Y166_H170Q] | 0.661
25 | PQDVTYARLHS [LILRB4_Y412_Q414R] | 0.518
26 | AIGCEYSEINI [SIGLEC12_Y588_Y586C] | 0.924
27 | HFIKLYEEKTG [PARP1_Y618_M615I] | 1.03
28 | TENAGYFFRIS | 1.46
29 | KKYFSYAWPFY [BRDT_Y291_H288Y] | 1.24
30 | SSTASYFKAPG [RFX2_Y108_E110K] | 0.53
31 | LSNFNYEQRGA [API5_Y497_G493S] | 1.41
32 | DAMQTYNGNDE [TSPAN7_Y131] | 1.03
33 | LPSKDYAEVRR [HP_Y272_G276R] | 0.539
34 | NTGVFYDLFGG [PTPN11_Y63_D61V_YF] | 0.958
35 | NFDRVYIYHLR [MYOF_Y1137] | 1.03
36 | GIVEDYRPPFC [ACVRL1_Y421_Y426C] | 0.883
37 | ISIFHCAKGQP [MPZ_Y82_Y82C] | 1.41
38 | NFGTNYRVGSS [CPO_Y278_K273N_YF] | 0.534
39 | GACGGYCSVLG [RAB18_Y202] | 0.522
40 | PLFKIYVAELI [MRPL28_Y230] | 1.71
41 | DKATEYIQYVR [MAX_Y70_M74V] | 0.763
42 | DPHKIFEFVNS [IRF3_Y107_Y107F] | 0.615
43 | LERYIYNPEEF [HLA-DPB1_Y59_R61P] | 2.66
44 | RVLKLYGCSPS [ASTL_Y279] | 0.983

target: MERTK (UniProt Q12866); test: as above
Sequence (Q12866 whole entry, looked up): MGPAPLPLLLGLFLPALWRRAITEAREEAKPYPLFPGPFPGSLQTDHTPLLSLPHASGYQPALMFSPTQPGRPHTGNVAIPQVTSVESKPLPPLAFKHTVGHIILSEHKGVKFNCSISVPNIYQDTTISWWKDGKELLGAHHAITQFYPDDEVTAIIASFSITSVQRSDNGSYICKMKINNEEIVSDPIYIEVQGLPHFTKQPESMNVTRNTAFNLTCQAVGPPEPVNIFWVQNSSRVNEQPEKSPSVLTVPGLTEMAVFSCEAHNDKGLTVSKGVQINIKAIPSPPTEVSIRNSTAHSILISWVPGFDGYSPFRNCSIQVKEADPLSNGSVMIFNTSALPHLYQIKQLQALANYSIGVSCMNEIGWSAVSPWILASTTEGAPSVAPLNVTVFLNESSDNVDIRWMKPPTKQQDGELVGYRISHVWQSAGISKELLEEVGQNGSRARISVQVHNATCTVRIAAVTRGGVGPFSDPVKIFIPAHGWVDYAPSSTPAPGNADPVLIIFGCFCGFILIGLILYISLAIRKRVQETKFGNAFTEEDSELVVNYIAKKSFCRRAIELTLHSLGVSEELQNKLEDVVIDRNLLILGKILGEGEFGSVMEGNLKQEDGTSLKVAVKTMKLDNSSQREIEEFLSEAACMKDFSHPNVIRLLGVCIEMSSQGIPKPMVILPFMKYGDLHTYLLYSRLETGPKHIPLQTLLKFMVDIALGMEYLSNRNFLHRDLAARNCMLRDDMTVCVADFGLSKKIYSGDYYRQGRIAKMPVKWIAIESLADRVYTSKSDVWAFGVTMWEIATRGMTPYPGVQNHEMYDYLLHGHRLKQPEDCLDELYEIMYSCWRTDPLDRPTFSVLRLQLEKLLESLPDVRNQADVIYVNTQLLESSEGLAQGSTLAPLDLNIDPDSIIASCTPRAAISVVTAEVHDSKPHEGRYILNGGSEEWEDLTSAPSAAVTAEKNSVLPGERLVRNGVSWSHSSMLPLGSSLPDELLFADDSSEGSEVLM

Row | Sequence | phosphorylation enrichment
45 | EKKKYYDTKIE [CASP5_Y104] | 0.443
46 | FADIAYNYRQG [PAH_Y166_H170Q] | 0.43
47 | PQDVTYARLHS [LILRB4_Y412_Q414R] | 0.735
48 | AIGCEYSEINI [SIGLEC12_Y588_Y586C] | 0.492
49 | HFIKLYEEKTG [PARP1_Y618_M615I] | 0.694
50 | TENAGYFFRIS | 0.388
51 | KKYFSYAWPFY [BRDT_Y291_H288Y] | 1.96
52 | SSTASYFKAPG [RFX2_Y108_E110K] | 0.415
53 | LSNFNYEQRGA [API5_Y497_G493S] | 0.796
54 | DAMQTYNGNDE [TSPAN7_Y131] | 0.585
55 | LPSKDYAEVRR [HP_Y272_G276R] | 0.361
56 | NTGVFYDLFGG [PTPN11_Y63_D61V_YF] | 7.01
57 | NFDRVYIYHLR [MYOF_Y1137] | 0.528
58 | GIVEDYRPPFC [ACVRL1_Y421_Y426C] | 0.451
59 | ISIFHCAKGQP [MPZ_Y82_Y82C] | 0.62
60 | NFGTNYRVGSS [CPO_Y278_K273N_YF] | 0.42
61 | GACGGYCSVLG [RAB18_Y202] | 0.525
62 | PLFKIYVAELI [MRPL28_Y230] | 0.707
63 | DKATEYIQYVR [MAX_Y70_M74V] | 0.425
64 | DPHKIFEFVNS [IRF3_Y107_Y107F] | 0.412
65 | LERYIYNPEEF [HLA-DPB1_Y59_R61P] | 0.682
66 | RVLKLYGCSPS [ASTL_Y279] | 0.461

system: c-Abl (mouse); test: as above

Row | Sequence | phosphorylation enrichment
67 | EKKKYYDTKIE [CASP5_Y104] | 0.761
68 | FADIAYNYRQG [PAH_Y166_H170Q] | 0.594
69 | PQDVTYARLHS [LILRB4_Y412_Q414R] | 0.842
70 | AIGCEYSEINI [SIGLEC12_Y588_Y586C] | 0.928
71 | HFIKLYEEKTG [PARP1_Y618_M615I] | 0.781
72 | TENAGYFFRIS | 0.925
73 | KKYFSYAWPFY [BRDT_Y291_H288Y] | 0.712
74 | SSTASYFKAPG [RFX2_Y108_E110K] | 0.418
75 | LSNFNYEQRGA [API5_Y497_G493S] | 1.11
76 | DAMQTYNGNDE [TSPAN7_Y131] | 0.653
77 | LPSKDYAEVRR [HP_Y272_G276R] | 1.75
78 | NTGVFYDLFGG [PTPN11_Y63_D61V_YF] | 0.797
79 | NFDRVYIYHLR [MYOF_Y1137] | 0.718
80 | GIVEDYRPPFC [ACVRL1_Y421_Y426C] | 0.782
81 | ISIFHCAKGQP [MPZ_Y82_Y82C] | 0.954
82 | NFGTNYRVGSS [CPO_Y278_K273N_YF] | 0.525
83 | GACGGYCSVLG [RAB18_Y202] | 0.461
84 | PLFKIYVAELI [MRPL28_Y230] | 0.947
85 | DKATEYIQYVR [MAX_Y70_M74V] | 0.582
86 | DPHKIFEFVNS [IRF3_Y107_Y107F] | 0.431
87 | LERYIYNPEEF [HLA-DPB1_Y59_R61P] | 1.32
88 | RVLKLYGCSPS [ASTL_Y279] | 0.719
